Assay results reported in publication PMC4775402 (Pharmacological research, 2016).

Legend:
Type in all cases: cell-based
ΔPDZ S1PR2 = ΔPDZ S1PR2 (Homo sapiens, UniProt O95136); experiment: Label-free DMR agonist response, HEK293T expressing ΔPDZ S1PR2
WT S1PR2 = WT S1PR2 (Homo sapiens, UniProt O95136); experiment: Label-free DMR agonist response, HEK293T expressing WT S1PR2
ΔPDZ P2RY1 = ΔPDZ P2RY1 (Homo sapiens, UniProt P47900); experiment: Label-free DMR agonist response, HEK293T expressing ΔPDZ P2RY1
WT P2RY12 = WT P2RY12 (Homo sapiens, UniProt Q9H244); experiment: Label-free DMR agonist response, HEK293T expressing WT P2RY12
WT P2RY1 = WT P2RY1 (Homo sapiens, UniProt P47900); experiment: Label-free DMR agonist response, HEK293T expressing WT P2RY1
ΔPDZ P2RY12 = ΔPDZ P2RY12 (Homo sapiens, UniProt Q9H244); experiment: Label-free DMR agonist response, HEK293T expressing ΔPDZ P2RY12
ΔPDZ CXCR5 = biological target: T1, ΔPDZ CXCR5 (Homo sapiens, UniProt P32302); experiment: Label-free DMR agonist response, HEK293T expressing ΔPDZ CXCR5
T1 sequence (P32302 1-368 limits assumed): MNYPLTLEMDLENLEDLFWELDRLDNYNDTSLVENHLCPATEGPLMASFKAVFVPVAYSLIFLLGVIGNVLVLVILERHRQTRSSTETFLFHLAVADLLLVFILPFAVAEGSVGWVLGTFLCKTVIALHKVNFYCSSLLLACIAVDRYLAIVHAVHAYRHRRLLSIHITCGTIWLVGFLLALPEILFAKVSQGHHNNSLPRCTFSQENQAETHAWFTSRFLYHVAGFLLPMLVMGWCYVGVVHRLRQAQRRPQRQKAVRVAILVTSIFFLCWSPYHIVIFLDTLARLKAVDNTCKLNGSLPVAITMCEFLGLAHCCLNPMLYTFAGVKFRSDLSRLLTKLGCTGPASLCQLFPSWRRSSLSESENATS

WT CXCR5 = biological target: T2, WT CXCR5 (Homo sapiens, UniProt P32302); experiment: Label-free DMR agonist response, HEK293T expressing WT CXCR5
T2 sequence (P32302 1-372): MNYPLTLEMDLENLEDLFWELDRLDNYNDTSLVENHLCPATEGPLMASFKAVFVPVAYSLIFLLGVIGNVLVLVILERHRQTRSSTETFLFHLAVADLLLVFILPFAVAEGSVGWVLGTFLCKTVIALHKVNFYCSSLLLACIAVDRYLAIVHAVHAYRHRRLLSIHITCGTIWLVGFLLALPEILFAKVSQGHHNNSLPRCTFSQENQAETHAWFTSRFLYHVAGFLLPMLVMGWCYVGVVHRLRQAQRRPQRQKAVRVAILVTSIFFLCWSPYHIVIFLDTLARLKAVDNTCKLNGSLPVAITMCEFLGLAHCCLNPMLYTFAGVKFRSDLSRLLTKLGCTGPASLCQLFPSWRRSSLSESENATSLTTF

WT CXCR2 = biological target: T3, WT CXCR2 (Homo sapiens, UniProt P25025); experiment: Label-free DMR agonist response, HEK293T expressing WT CXCR2
T3 sequence (P25025 1-360): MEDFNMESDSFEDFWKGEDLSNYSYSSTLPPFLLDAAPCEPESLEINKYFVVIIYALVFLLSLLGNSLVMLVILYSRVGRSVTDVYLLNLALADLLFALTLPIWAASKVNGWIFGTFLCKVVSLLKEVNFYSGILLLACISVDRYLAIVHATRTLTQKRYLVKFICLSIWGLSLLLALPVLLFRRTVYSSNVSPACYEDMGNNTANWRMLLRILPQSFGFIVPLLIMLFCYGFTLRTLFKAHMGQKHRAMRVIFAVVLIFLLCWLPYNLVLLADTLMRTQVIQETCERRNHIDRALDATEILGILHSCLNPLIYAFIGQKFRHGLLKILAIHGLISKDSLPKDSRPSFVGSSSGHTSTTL

ΔPDZ CXCR2 = biological target: T4, ΔPDZ CXCR2 (Homo sapiens, UniProt P25025); experiment: Label-free DMR agonist response, HEK293T expressing ΔPDZ CXCR2
T4 sequence (P25025 1-356 limits assumed): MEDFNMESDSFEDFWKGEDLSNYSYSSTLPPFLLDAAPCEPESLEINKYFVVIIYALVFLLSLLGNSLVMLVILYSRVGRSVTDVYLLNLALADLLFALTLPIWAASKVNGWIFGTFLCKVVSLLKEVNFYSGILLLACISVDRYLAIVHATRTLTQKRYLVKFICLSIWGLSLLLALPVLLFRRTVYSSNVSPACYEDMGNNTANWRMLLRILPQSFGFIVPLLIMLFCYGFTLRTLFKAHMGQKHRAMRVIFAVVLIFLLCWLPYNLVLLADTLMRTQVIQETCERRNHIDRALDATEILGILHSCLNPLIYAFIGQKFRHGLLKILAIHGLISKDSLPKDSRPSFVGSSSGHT

WT CXCR3 = biological target: T5, WT CXCR3 (Homo sapiens, UniProt P49682); experiment: Label-free DMR agonist response, HEK293T expressing WT CXCR3
T5 sequence (P49682 1-368): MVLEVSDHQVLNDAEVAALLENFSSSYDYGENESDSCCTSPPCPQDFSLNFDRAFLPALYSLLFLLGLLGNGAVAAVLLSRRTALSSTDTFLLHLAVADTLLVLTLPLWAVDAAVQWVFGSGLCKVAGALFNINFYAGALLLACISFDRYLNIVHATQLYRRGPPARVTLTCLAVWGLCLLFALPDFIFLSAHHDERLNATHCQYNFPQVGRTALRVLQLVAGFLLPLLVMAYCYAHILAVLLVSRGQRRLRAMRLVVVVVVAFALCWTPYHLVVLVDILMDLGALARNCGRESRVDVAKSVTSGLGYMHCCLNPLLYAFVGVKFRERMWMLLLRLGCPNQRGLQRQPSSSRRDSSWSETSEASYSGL

WT CXCR1 = biological target: T6, WT CXCR1 (Homo sapiens, UniProt P25024); experiment: Label-free DMR agonist response, HEK293T expressing WT CXCR1
T6 sequence (P25024 1-350): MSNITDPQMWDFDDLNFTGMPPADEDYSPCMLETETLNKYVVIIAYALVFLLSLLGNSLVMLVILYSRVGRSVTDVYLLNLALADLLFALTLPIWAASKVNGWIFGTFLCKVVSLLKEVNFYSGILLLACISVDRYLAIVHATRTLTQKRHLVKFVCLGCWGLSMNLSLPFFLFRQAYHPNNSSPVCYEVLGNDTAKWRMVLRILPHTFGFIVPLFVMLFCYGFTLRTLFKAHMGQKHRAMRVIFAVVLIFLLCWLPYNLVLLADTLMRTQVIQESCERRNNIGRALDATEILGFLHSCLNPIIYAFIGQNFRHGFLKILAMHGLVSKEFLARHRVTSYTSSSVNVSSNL

ΔPDZ CXCR1 = biological target: T7, ΔPDZ CXCR1 (Homo sapiens, UniProt P25024); experiment: Label-free DMR agonist response, HEK293T expressing ΔPDZ CXCR1
T7 sequence (P25024 1-346 limits assumed): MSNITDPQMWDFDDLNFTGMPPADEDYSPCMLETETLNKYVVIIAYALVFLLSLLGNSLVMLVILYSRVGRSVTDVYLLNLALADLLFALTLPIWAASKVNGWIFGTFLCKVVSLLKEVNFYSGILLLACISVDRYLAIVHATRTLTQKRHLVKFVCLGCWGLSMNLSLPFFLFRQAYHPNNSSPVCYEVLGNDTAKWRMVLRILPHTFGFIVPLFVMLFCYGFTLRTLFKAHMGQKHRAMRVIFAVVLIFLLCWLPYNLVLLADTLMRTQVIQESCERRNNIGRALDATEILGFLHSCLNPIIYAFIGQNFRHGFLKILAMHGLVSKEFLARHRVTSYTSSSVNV

ΔPDZ CXCR3 = biological target: T8, ΔPDZ CXCR3 (Homo sapiens, UniProt P49682); experiment: Label-free DMR agonist response, HEK293T expressing ΔPDZ CXCR3
T8 sequence (P49682 1-364 limits assumed): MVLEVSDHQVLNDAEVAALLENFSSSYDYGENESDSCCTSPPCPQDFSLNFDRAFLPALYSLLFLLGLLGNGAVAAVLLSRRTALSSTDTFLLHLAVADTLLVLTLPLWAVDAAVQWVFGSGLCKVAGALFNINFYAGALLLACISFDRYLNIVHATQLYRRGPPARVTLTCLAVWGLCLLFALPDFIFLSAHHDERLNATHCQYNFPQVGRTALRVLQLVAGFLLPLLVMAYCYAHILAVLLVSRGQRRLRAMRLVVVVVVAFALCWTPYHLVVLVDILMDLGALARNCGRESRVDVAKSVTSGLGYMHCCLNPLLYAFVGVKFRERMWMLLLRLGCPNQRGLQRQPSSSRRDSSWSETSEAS

Sequence of WT P2RY12 (Q9H244 whole entry, one chain of several): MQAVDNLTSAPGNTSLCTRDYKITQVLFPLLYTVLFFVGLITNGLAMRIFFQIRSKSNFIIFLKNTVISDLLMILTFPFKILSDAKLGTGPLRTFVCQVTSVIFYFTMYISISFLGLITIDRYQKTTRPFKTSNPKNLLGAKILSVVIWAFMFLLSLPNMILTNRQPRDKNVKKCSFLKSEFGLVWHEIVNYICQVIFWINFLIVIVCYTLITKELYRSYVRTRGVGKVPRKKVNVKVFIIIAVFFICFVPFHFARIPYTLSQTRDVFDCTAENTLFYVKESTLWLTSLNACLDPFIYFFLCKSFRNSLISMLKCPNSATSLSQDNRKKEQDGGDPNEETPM
Sequence of WT P2RY1 (P47900 whole entry): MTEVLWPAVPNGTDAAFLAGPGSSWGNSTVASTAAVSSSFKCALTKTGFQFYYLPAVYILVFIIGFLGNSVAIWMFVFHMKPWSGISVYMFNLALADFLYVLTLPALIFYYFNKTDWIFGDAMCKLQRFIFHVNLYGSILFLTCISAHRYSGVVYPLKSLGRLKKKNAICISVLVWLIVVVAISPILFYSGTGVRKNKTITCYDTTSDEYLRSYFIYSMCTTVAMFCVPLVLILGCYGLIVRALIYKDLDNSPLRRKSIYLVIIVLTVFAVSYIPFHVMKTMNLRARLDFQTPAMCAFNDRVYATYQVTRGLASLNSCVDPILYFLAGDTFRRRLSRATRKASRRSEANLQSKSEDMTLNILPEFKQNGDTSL
Sequence of ΔPDZ P2RY1 (P47900 1-369 limits assumed, stated change not applied): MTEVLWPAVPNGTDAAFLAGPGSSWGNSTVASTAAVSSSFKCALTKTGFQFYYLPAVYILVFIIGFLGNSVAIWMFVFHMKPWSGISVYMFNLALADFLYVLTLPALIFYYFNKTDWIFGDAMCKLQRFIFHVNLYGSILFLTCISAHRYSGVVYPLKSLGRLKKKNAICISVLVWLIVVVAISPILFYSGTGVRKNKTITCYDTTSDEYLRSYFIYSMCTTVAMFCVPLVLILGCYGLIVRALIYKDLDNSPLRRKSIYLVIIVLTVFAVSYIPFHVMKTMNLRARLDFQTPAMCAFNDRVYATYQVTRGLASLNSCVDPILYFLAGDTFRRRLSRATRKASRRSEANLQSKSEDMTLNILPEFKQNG
Sequence of ΔPDZ P2RY12 (Q9H244 1-338 limits assumed, stated change not applied, one chain of several): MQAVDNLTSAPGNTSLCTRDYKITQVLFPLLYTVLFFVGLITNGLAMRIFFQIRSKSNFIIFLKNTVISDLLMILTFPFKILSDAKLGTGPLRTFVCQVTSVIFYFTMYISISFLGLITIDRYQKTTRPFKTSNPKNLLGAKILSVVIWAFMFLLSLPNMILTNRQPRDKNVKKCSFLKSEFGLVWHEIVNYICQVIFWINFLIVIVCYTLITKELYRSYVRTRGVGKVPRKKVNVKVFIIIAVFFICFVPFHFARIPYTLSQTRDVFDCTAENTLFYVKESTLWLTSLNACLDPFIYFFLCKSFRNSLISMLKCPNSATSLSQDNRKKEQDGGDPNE
Sequence of ΔPDZ S1PR2 (O95136 1-349 limits assumed, stated change not applied): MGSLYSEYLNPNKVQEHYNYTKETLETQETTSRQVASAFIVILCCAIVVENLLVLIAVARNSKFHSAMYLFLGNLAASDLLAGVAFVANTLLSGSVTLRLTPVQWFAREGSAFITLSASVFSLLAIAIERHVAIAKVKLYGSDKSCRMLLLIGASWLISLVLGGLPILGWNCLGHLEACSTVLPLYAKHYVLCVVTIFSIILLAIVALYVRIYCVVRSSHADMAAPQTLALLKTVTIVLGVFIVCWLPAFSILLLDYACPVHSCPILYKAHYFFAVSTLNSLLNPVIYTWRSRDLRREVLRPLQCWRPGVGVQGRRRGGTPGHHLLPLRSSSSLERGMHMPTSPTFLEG
Sequence of WT S1PR2 (O95136 whole entry): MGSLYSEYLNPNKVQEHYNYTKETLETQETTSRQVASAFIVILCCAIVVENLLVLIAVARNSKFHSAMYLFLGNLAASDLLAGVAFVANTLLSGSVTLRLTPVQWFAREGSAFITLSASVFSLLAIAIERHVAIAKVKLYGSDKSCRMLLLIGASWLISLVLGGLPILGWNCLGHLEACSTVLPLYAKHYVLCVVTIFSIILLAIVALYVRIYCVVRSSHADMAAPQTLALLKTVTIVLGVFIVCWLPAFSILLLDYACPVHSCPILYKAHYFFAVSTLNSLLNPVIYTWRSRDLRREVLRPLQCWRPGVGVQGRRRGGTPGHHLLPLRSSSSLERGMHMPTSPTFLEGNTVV

Molecule: CCCCCCCCCCCCC/C=C/[C@@H](O)[C@@H](N)COP(=O)(O)O [Sphingosine-1-phosphate, sphingosine-1-phosphate]
- ΔPDZ Max (DMR) (ΔPDZ S1PR2; ΔPDZ S1PR2, maximal agonist DMR response): −10.16 ± 4.91
- ΔPDZ TTP (ΔPDZ S1PR2; ΔPDZ S1PR2, time to peak DMR): 16.31 s
- WT Max (DMR) (WT S1PR2; WT S1PR2, maximal agonist DMR response): −40.54 ± 3.76
- WT TTP (WT S1PR2; WT S1PR2, time to peak DMR): 17.61 s

Molecule: O=c1ccn([C@@H]2O[C@H](COP(=O)(O)OP(=O)(O)OP(=O)(O)O)[C@@H](O)[C@H]2O)c(=O)[nH]1 [UTP]
- ΔPDZ pEC50 (ΔPDZ P2RY1; ΔPDZ P2RY1, DMR CRC): −5.69 ± 0.19
- ΔPDZ Max (DMR) (ΔPDZ P2RY1; ΔPDZ P2RY1, maximal agonist DMR response): 118.68 ± 10.27
- ΔPDZ TTP (ΔPDZ P2RY1; ΔPDZ P2RY1, time to peak DMR): 5.27 s
- WT pEC50 (WT P2RY12; HEK293T, WT P2RY12, DMR CRC): −5.47 ± 0.07
- WT Max (DMR) (WT P2RY12; HEK293T, WT P2RY12, maximal agonist DMR response): 170.04 ± 2.93
- WT TTP (WT P2RY12; HEK293T, WT P2RY12, time to peak DMR): 5.40 s
- Agonist potency (in words) (WT P2RY12; P2Y receptors (P2RY12), DMR): micromolar
- WT pEC50 (WT P2RY1; HEK293T, WT P2RY1, DMR CRC): −5.39 ± 0.15
- WT Max (DMR) (WT P2RY1; HEK293T, WT P2RY1, maximal agonist DMR response): 116.19 ± 2.22
- WT TTP (WT P2RY1; HEK293T, WT P2RY1, time to peak DMR): 4.87 s
- Agonist potency (in words) (WT P2RY1; P2Y receptors (P2RY1), DMR): micromolar
- ΔPDZ pEC50 (ΔPDZ P2RY12; ΔPDZ P2RY12, DMR CRC): −5.70 ± 0.08
- ΔPDZ Max (DMR) (ΔPDZ P2RY12; ΔPDZ P2RY12, maximal agonist DMR response): 192.60 ± 6.35
- ΔPDZ TTP (ΔPDZ P2RY12; ΔPDZ P2RY12, time to peak DMR): 5.20 s

Molecule: interleukin-8
- ΔPDZ pEC50 (ΔPDZ CXCR5; ΔPDZ CXCR5, DMR CRC): −9.97 ± 0.12
- ΔPDZ Max (DMR) (ΔPDZ CXCR5; ΔPDZ CXCR5, maximal agonist DMR response): 40.70 ± 2.54
- ΔPDZ TTP (ΔPDZ CXCR5; ΔPDZ CXCR5, time to peak DMR): 2.30 s
- WT pEC50 (WT CXCR5; WT CXCR5, DMR CRC): −10.34 ± 0.16
- WT Max (DMR) (WT CXCR5; WT CXCR5, maximal agonist DMR response): 23.22 ± 1.80
- WT TTP (WT CXCR5; WT CXCR5, time to peak DMR): 2.50 s
- WT pEC50 (WT CXCR2; WT CXCR2, DMR CRC): −8.53 ± 0.11
- WT Max (DMR) (WT CXCR2; WT CXCR2, maximal agonist DMR response): 34.89 ± 2.08
- WT TTP (WT CXCR2; WT CXCR2, time to peak DMR): 3.20 s
- ΔPDZ pEC50 (ΔPDZ CXCR2; ΔPDZ CXCR2, DMR CRC): −8.45 ± 0.13
- ΔPDZ Max (DMR) (ΔPDZ CXCR2; ΔPDZ CXCR2, maximal agonist DMR response): 37.50 ± 2.20
- ΔPDZ TTP (ΔPDZ CXCR2; ΔPDZ CXCR2, time to peak DMR): 3.50 s
- WT Max (DMR) (WT CXCR3; WT CXCR3, maximal agonist DMR response): 10.17 ± 2.00
- WT TTP (WT CXCR3; WT CXCR3, time to peak DMR): 11.70 s
- WT pEC50 (WT CXCR1; WT CXCR1, DMR CRC): −8.29 ± 0.07
- WT Max (DMR) (WT CXCR1; WT CXCR1, maximal agonist DMR response): 69.69 ± 1.88
- WT TTP (WT CXCR1; WT CXCR1, time to peak DMR): 3.60 s
- ΔPDZ pEC50 (ΔPDZ CXCR1; ΔPDZ CXCR1, DMR CRC): −7.08 ± 0.45
- ΔPDZ Max (DMR) (ΔPDZ CXCR1; ΔPDZ CXCR1, maximal agonist DMR response): 9.48 ± 1.53
- ΔPDZ TTP (ΔPDZ CXCR1; ΔPDZ CXCR1, time to peak DMR): 3.80 s
- ΔPDZ Max (DMR) (ΔPDZ CXCR3; ΔPDZ CXCR3, maximal agonist DMR response): 18.3 ± 3.16
- ΔPDZ TTP (ΔPDZ CXCR3; ΔPDZ CXCR3, time to peak DMR): 15.60 s
